Source: article PMC7138851, “Quantitative assessment of the determinant structural differences between redox-active and inactive glutaredoxins” (Nature Communications, 2020)

Experiments:
Assay in all cases: purified protein, by the assay type
Conditions in all cases: pH 8.0; 25.0 °C
[1] = substrate: N[C@@H](CCC(=O)N[C@@H](CS)C(=O)NCC(=O)O)C(=O)O; set-up: GSSCys oxidoreductase assay, steady-state kinetics, coupled NADPH consumption at 340 nm, pH 8.0, 25 °C
Method: (§1) Steady-state kinetics of wild-type and mutant ScGrx7 and HsGrx5^C122S in the GSSCys and [compound left out] assays were determined spectrophotometrically by monitoring the consumption of NADPH at 340 nm and 25 °C using a thermostated Jasco V-650 UV/vis spectrophotometer[11],[19],[25]. Fresh stock solutions of NADPH, GSH, GR, and GSSCys or [compound left out] were prepared in assay buffer containing 0.1 M Tris/HCl, 1 mM EDTA, pH 8.0 before each experiment. Both assays were performed with 0.1 mM NADPH and 1 U/ml ScGR. The following final protein concentrations were used for Y110F/H/A (5–150 nM), D144A/K (10 nM), E147A/K (10 nM), R153A/E (25–50 nM), ScGrx7^WP (20 nM), ScGrx7^loop (up to 1.4 µM), ScGrx7^WP+loop (up 2.6 µM), HsGrx5^C122S (up to 15 µM), HsGrx5^RR (up to 12 µM), HsGrx5^loop (up to 1.6 µM), and HsGrx5^RR+loop (up to 4.0 µM). For the GSSCys assays, GSH was varied between 50 µM and 1.5 mM at fixed GSSCys concentrations (25, 50, 100, and 150 µM). NADPH, GSH, and GR were mixed in assay buffer before Grx was added and a baseline was recorded for 30 s. All GSSCys assays were started by the addition of GSSCys. The absorbance of a reference cuvette containing all components but no Grx was measured in parallel and subtracted from the obtained Grx activity. For the [compound left out] assays, GSH was varied between 100 µM and 2.0 mM at fixed concentrations of [compound left out] (0.18, 0.37, 0.55, and 0.74 mM). NADPH, GSH, and [compound left out] were preincubated in assay buffer for 2 min before GR was added and a baseline was recorded for 30 s. All [compound left out] assays were started by the addition of enzyme. Kinetic data were analyzed in Excel and SigmaPlot 13 by nonlinear and linear regression according to Michaelis–Menten, Lineweaver–Burk, Eadie–Hofstee, and Hanes theory[11],[19],[25]. 13 Supplementary Figure 7 Supplementary Figure 7 | GSSCys assay steady-state kinetics of ScGrx7 wild-type enzyme and D144X mutants. (a) Michaelis-Menten plots of the GSH-dependent reaction velocity at different initial concentrations of GSSCys. […]

[2] = substrate: N[C@@H](CCC(=O)N[C@@H](CS)C(=O)NCC(=O)O)C(=O)O; set-up: GSSCys oxidoreductase assay, steady-state kinetics, coupled NADPH consumption at 340 nm, pH 8.0, 25 °C; remark: listed apart in the source
Method: as §1

[3] = substrate: N[C@@H](CCC(=O)N[C@@H](CSSC[C@H](N)C(=O)O)C(=O)NCC(=O)O)C(=O)O; set-up: GSSCys oxidoreductase assay, steady-state kinetics, coupled NADPH consumption at 340 nm, pH 8.0, 25 °C
Method: as §1

[4] = substrate: N[C@@H](CCC(=O)N[C@@H](CS)C(=O)NCC(=O)O)C(=O)O; set-up: Disulfide oxidoreductase assay, steady-state kinetics, coupled NADPH consumption at 340 nm, pH 8.0, 25 °C
Method: Steady-state kinetics of wild-type and mutant ScGrx7 and HsGrx5^C122S in the GSSCys and [compound left out] assays were determined spectrophotometrically by monitoring the consumption of NADPH at 340 nm and 25 °C using a thermostated Jasco V-650 UV/vis spectrophotometer[11],[19],[25]. Fresh stock solutions of NADPH, GSH, GR, and GSSCys or [compound left out] were prepared in assay buffer containing 0.1 M Tris/HCl, 1 mM EDTA, pH 8.0 before each experiment. Both assays were performed with 0.1 mM NADPH and 1 U/ml ScGR. The following final protein concentrations were used for Y110F/H/A (5–150 nM), D144A/K (10 nM), E147A/K (10 nM), R153A/E (25–50 nM), ScGrx7^WP (20 nM), ScGrx7^loop (up to 1.4 µM), ScGrx7^WP+loop (up 2.6 µM), HsGrx5^C122S (up to 15 µM), HsGrx5^RR (up to 12 µM), HsGrx5^loop (up to 1.6 µM), and HsGrx5^RR+loop (up to 4.0 µM). For the GSSCys assays, GSH was varied between 50 µM and 1.5 mM at fixed GSSCys concentrations (25, 50, 100, and 150 µM). NADPH, GSH, and GR were mixed in assay buffer before Grx was added and a baseline was recorded for 30 s. All GSSCys assays were started by the addition of GSSCys. The absorbance of a reference cuvette containing all components but no Grx was measured in parallel and subtracted from the obtained Grx activity. For the [compound left out] assays, GSH was varied between 100 µM and 2.0 mM at fixed concentrations of [compound left out] (0.18, 0.37, 0.55, and 0.74 mM). NADPH, GSH, and [compound left out] were preincubated in assay buffer for 2 min before GR was added and a baseline was recorded for 30 s. All [compound left out] assays were started by the addition of enzyme. Kinetic data were analyzed in Excel and SigmaPlot 13 by nonlinear and linear regression according to Michaelis–Menten, Lineweaver–Burk, Eadie–Hofstee, and Hanes theory[11],[19],[25].

B1: ScGrx7 (Saccharomyces cerevisiae S288C) (protein)
chain: SVNESITTHHPDSLVTFDNSGNAPGTHQSVHDTVNTQDKEAEEVDKNSGDAEFDAAAEYNKIMEQSPMIVFSKTGCPYSKKLKALLTNSYTFSPSYYVVELDRHEHTKELQDQIEKVTGRRTVPNVIIGGTSRGGYTEIAELHKNDELLDSFKKWSDGAFTVKANSQSESA
notes: E. coli XL1-Blue, pQE30; N-terminal MRGS(H)6 tag
B1 was tested, and the Km [1] was 244 ± 27.1 µM, the kcat [1] was 68 ± 2.4 s⁻¹ and the kcat/Km [1] was 279000 M⁻¹ s⁻¹. The Km [2] was 291 ± 17.6 µM, the kcat [2] was 75.2 ± 1.6 s⁻¹ and the kcat/Km [2] was 258000 M⁻¹ s⁻¹. It also gave a Km [3] of 320 ± 91 µM, a kcat [3] of 239 ± 54 s⁻¹ and a kcat/Km [3] of 757000 M⁻¹ s⁻¹. The Km [4] was 1100 ± 100 µM, the kcat [4] was 72.9 ± 3.4 s⁻¹ and the kcat/Km [4] was 66500 M⁻¹ s⁻¹.
